PMC4564863

T1: InbR (Mycobacterium tuberculosis H37Rv, UniProt L7N6A2 1-241)
T1 sequence: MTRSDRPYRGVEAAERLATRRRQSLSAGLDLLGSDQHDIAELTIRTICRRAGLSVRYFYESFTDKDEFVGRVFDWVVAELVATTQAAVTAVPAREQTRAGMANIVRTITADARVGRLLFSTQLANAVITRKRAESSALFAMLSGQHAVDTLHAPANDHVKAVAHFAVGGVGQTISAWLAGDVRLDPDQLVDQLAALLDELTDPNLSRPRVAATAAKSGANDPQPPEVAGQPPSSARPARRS

B1: Rv0275cp1 (dsDNA)
DNA 1: TGCCGCTAATTATGGAAACACCTGTATCCTGATATTGGCCGG
DNA 2: CCGGCCAATATCAGGATACAGGTGTTTCCATAATTAGCGGCA
B2: Rv0275cp4 (dsDNA)
DNA 1: TGCCGCTAATTATTTATTTGCCGTGGGAATGATATTGGCCGG
DNA 2: CCGGCCAATATCATTCCCACGGCAAATAAATAATTAGCGGCA

Legend:
InbR (Rv0275c) = InbR (Rv0275c) (Mycobacterium tuberculosis, UniProt L7N6A2); test: biochemical
InbR = target: T1, InbR; test: EMSA; 0.25-2 uM InbR; details: protein: recombinant; tags: His6 (pET28a, N-terminal); label: FITC

Row | Molecule | Kd (InbR (Rv0275c)) [nM] | binding result (InbR)
1 | NNC(=O)c1ccncc1 [INH, Isoniazid] | 720 | –
2 | B1 | – | binds
3 | B2 | – | no binding
